Measured values as given in patent US20180155451A1 (published 2018).
Changes are numbered by the printed parent chain. In names and notes the source's numbering stands.

B1: H240-Kn061 (Y235A)/H240-Hl071/L73-k0 (antibody, human IgG1, kappa)
heavy 1: QDQLVQSGAEVKKPGASVKVSCKASGFNIKDTYIQWVRQAPGQGLEWMGRIDPLRKQTKYREKFEGRVTITADTSTNTAYMELSSLRSEDTAVYYCVRSGREFDYWGQGTLVTVSSASTKGPSVFPLAPSSKSTSGGTAALGCLVKDYFPEPVTVSWNSGALTSGVHTFPAVLQSSGLYSLSSVVTVPSSSLGTQTYICNVNHKPSNTKVDKKVEPKSCDKTHTCPPCPAPEYAWGPSVFLFPPKPKDTLMISRTPEVTCVVVDVSDEDPEVKFNWYVDGVEVHNAKTKPREEQYNATYRVVSVLTVLHQDWLNGKEYKCKVSNKALPAPIEKTISKAKGQPREPQVCTLPPSRDELTKNQVSLWCLVKGFYPSDIAVEWESNGQPENNYKTTPPVLDSDGSFFLYSKLTVDKSRWQQGNVFSCSVMHEALHNHYTQKSLSLSP
heavy 2: QDQLVQSGAEVKKPGASVKVSCKASGFNIKDTYIQWVRQAPGQGLEWMGRIDPLRKQTKYREKFEGRVTITADTSTNTAYMELSSLRSEDTAVYYCVRSGREFDYWGQGTLVTVSSASTKGPSVFPLAPSSKSTSGGTAALGCLVKDYFPEPVTVSWNSGALTSGVHTFPAVLQSSGLYSLSSVVTVPSSSLGTQTYICNVNHKPSNTKVDKKVEPKSCDKTHTCPPCPAPELLGGPSVFLFPPKPKDTLMISRTPEVTCVVVDVSHEDPEVKFNWYVDGVEVHNAKTKPREEQYNSTYRVVSVLTVLHQDWLNGKEYKCKVSNDALPMPIEETISKAKGQPREPQVYTLPPSRCELTKNQVSLSCAVKGFYPSDIAVEWESNGQPENNYKTTPPVLDSDGSFFLVSKLTVDKSRWQQGNVFSCSVMHEALHNHYTQKSLSLSP
light: DIQMTQSPSSLSASVGDRVTITCRASQDIHKYIAWYQQKPGQAPRLLIQYTSTLQPGVPSRFSGSGSGTDYTFTISSLQPEDIATYYCLQYEQLRTFGGGTKVEIKRTVAAPSVFIFPPSDEQLKSGTASVVCLLNNFYPREAKVQWKVDNALQSGNSQESVTEQDSKDSTYSLSSTLTLSKADYEKHKVYACEVTHQGLSSPVTKSFNRGEC
B2: H240-Kn061 (S239L)/H240-Hl071/L73-k0 (antibody, human IgG1, kappa)
heavy 1: B1 heavy 1 with A234Y, S238L
heavy 2: B1 heavy 2
light: B1 light
B3: H240-Kn061 (S239M)/H240-Hl071/L73-k0 (antibody, human IgG1, kappa)
heavy 1: B1 heavy 1 with A234Y, S238M
heavy 2: B1 heavy 2
light: B1 light
B4: H240-Kn061 (S239V)/H240-Hl071/L73-k0 (antibody, human IgG1, kappa)
heavy 1: B1 heavy 1 with A234Y, S238V
heavy 2: B1 heavy 2
light: B1 light
B5: H240-Kn061 (Y234E)/H240-Hl071/L73-k0 (antibody, human IgG1, kappa)
heavy 1: B1 heavy 1 with Y233E, A234Y
heavy 2: B1 heavy 2
light: B1 light
B6: H240-Kn061 (Y234I)/H240-Hl071/L73-k0 (antibody, human IgG1, kappa)
heavy 1: B1 heavy 1 with Y233I, A234Y
heavy 2: B1 heavy 2
light: B1 light
B7: H240-Kn061 (Y234L)/H240-Hl071/L73-k0 (antibody, human IgG1, kappa)
heavy 1: B1 heavy 1 with Y233L, A234Y
heavy 2: B1 heavy 2
light: B1 light
B8: H240-Kn061 (Y235I)/H240-Hl071/L73-k0 (antibody, human IgG1, kappa)
heavy 1: B1 heavy 1 with A234I
heavy 2: B1 heavy 2
light: B1 light
B9: H240-Kn061 (Y235P)/H240-Hl071/L73-k0 (antibody, human IgG1, kappa)
heavy 1: B1 heavy 1 with A234P
heavy 2: B1 heavy 2
light: B1 light
B10: H240-Kn061 (Y235Q)/H240-Hl071/L73-k0 (antibody, human IgG1, kappa)
heavy 1: B1 heavy 1 with A234Q
heavy 2: B1 heavy 2
light: B1 light
B11: H240-Kn061 (Y235V)/H240-Hl071/L73-k0 (antibody, human IgG1, kappa)
heavy 1: B1 heavy 1 with A234V
heavy 2: B1 heavy 2
light: B1 light
B12: H240-Kn061/H240-Hl071 (F241N)/L73-k0 (antibody, human IgG1, kappa)
heavy 1: B1 heavy 1 with A234Y
heavy 2: B1 heavy 2 with F240N
light: B1 light
B13: H240-Kn061/H240-Hl071 (V240H)/L73-k0 (antibody, human IgG1, kappa)
heavy 1: B1 heavy 1 with A234Y
heavy 2: B1 heavy 2 with V239H
light: B1 light

The binders below were run against T1, FcgRIIb (human, UniProt P31994 43-217) (assay: SPR (Biacore); KD of H240-Kn061/H240-Hl071/L73-k0 divided by KD of the variant).
T1 construct: extracellular domain; also called FcγRIIb; not shown: His tag attached to the C terminus
T1 sequence (looked up): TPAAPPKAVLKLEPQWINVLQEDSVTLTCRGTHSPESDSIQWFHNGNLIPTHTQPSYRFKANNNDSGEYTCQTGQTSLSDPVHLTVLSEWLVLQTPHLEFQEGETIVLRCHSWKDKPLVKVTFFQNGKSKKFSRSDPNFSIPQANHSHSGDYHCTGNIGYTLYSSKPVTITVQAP
Description: (§1) The antibodies were assessed for the binding to each FcgR. […] The resultant value was defined as relative KD, and used as an assessment indicator.
(§2) Analysis of interaction between obj ective antibody and the FcγR was carried out using Biacore T100 (GE Healthcare), Biacore T200, Biacore A100, and Biacore 4000. HBS-EP+ (GE Healthcare) was used as the running buffer, and the measurement temperature was set to 25° C. Chips produced by immobilizing the antigen peptide by the amine coupling method to a Series S sensor Chip CM5 (GE Healthcare), chips produced by allowing preliminarily biotinylated antigen peptides to interact with and immobilize onto a Series S Sensor Chip SA (certified) (GE Healthcare), chips produced by immobilizing Protein L (ACTIGEN, BioVision) to Series S Sencor Chip CM5 (GE Healthcare), or chips produced by immobilizing Protein A/G (Thermo Scientific) to Series S Sencor Chip CM5 (GE Healthcare) were used. Antibodies of interest were captured onto these chips, and allowed to interact to each FcγR diluted with running buffer.

Point of comparison: B13, “Relative KD” value 0.3. Against it:
- B1 — lower, 0.2
- B2 — higher, 3.4
- B3 — higher, 2.2
- B4 — higher, 3.4
- B5 — higher, 0.5
- B6 — higher, 7.7
- B7 — higher, 3.5
- B8 — lower, 0.2
- B9 — higher, 0.5
- B10 — lower, 0.1
- B11 — lower, 0.2
- B12 — higher, 1.1

These binders were tested against T2, FcgRIIIa F (human, UniProt P08637 17-208) in the same assay as above.
T2 construct: extracellular domain; also called FcγRIIIa F; 3aF; not shown: His tag attached to the C terminus
T2 sequence (P08637 17-208): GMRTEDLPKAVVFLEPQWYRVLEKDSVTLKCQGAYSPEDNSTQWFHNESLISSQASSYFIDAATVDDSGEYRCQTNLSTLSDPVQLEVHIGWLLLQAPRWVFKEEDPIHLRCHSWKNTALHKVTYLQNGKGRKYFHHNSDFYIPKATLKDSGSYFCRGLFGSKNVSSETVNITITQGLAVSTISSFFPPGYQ
Description: as §1, §2

Point of comparison: B10, “Relative KD” value 1. Against it:
- B1 — higher, 1.2
- B2 — higher, 3.4
- B3 — higher, 2.2
- B4 — higher, 2.4
- B5 — higher, 1.9
- B6 — higher, 1.2
- B7 — higher, 1.1
- B8 — higher, 1.3
- B9 — higher, 1.1
- B11 — higher, 1.2
- B12 — lower, 0.8
- B13 — higher, 1.3

Each binder was assayed against T3, FcgRIIa H (human, UniProt P12318 34-217) in the same assay as above.
T3 construct: extracellular domain; also called FcγRIIa H; FcγRIIa type H; not shown: His tag attached to the C terminus
T3 sequence (looked up): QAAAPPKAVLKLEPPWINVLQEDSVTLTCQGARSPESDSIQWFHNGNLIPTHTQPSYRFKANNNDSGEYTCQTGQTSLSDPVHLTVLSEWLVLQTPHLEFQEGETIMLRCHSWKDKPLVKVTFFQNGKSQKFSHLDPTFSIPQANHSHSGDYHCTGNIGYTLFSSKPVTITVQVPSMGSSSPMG
Description: as §1, §2

Point of comparison: B7, “Relative KD” value 1.5. Against it:
- B1 — lower, 0.5
- B2 — higher, 2.4
- B3 — higher, 2
- B4 — higher, 2.4
- B5 — lower, 0.7
- B6 — higher, 2.6
- B8 — lower, 0.4
- B9 — lower, 0.4
- B10 — lower, 0.4
- B11 — lower, 0.4
- B12 — higher, 3.5
- B13 — lower, 0.8

These binders were tested against T4, FcgRIIa R (human, UniProt P12318 34-217) in the same assay as above.
T4 construct: extracellular domain; also called FcγRIIa R; FcγRIIa type R; not shown: His tag attached to the C terminus
T4 sequence (looked up): T3 sequence (looked up) with H134R
Description: as §1, §2

Point of comparison: B5, “Relative KD” value 1.4. Against it:
- B1 — lower, 0.5
- B2 — higher, 4.8
- B3 — higher, 3.2
- B4 — higher, 4.2
- B6 — higher, 4.1
- B7 — higher, 2.2
- B8 — lower, 0.7
- B9 — lower, 0.6
- B10 — lower, 0.8
- B11 — lower, 0.5
- B12 — higher, 3.8
- B13 — lower, 0.7

What follows are binders tested against T5, FcgRIIIa V (human, UniProt P08637 17-208) in the same assay as above.
T5 construct: extracellular domain; also called FcγRIIIa V; not shown: His tag attached to the C terminus
T5 sequence (P08637 17-208 F176V limits assumed): as the sequence (P08637 17-208) above, with F160V counted along it
Description: as §1, §2

Point of comparison: B5, “Relative KD” value 1.6. Against it:
- B1 — lower, 1.3
- B2 — higher, 3.7
- B3 — higher, 2.8
- B4 — higher, 2.9
- B6 — lower, 1.3
- B7 — lower, 1.2
- B8 — the same, 1.6
- B9 — lower, 1.5
- B10 — lower, 1.3
- B11 — lower, 1.3
- B12 — lower, 0.7
- B13 — lower, 1

Target: T1, FcgRIIb
Assay: as above
Remark: another data set of the same source
Description: as §1, §2

Point of comparison: B10, “Relative KD” value 0.1. Against it:
- B1 — higher, 0.2
- B5 — higher, 0.5
- B8 — higher, 0.2
- B9 — higher, 0.5
- B11 — higher, 0.2

Target: T2, FcgRIIIa F
Assay: as above
Remark: another data set of the same source
Description: as §1, §2

Point of comparison: B5, “Relative KD” value 1.9. Against it:
- B1 — lower, 1.2
- B8 — lower, 1.3
- B9 — lower, 1.1
- B10 — lower, 1
- B11 — lower, 1.2

Target: T5, FcgRIIIa V
Assay: as above
Remark: another data set of the same source
Description: as §1, §2

Point of comparison: B1, “Relative KD” value 1.3. Against it:
- B5 — higher, 1.6
- B8 — higher, 1.6
- B9 — higher, 1.5
- B10 — the same, 1.3
- B11 — the same, 1.3
